# Test results: PMC6294937, “Structure and architecture of immature and mature murine leukemia virus capsids” (Proceedings of the National Academy of Sciences of the …, 2018)
# Values joined by “and” are separate entries in the source; they are usually repeats but may differ in a detail not shown here. Identical values can stand only once.
# Key:
# [1] = target: MLV Gag polyprotein in immature virus particles (immature CA lattice) (murine leukemia virus (MLV)); assay: cryo-EM structure; cryo-ET and subtomogram averaging of the CA layer in purified, fixed immature MLV particles (PR D32L); 79 particles, sixfold symmetry, 6.6 Å; crystal structures fitted as rigid bodies
# [2] = target: truncated MLV CA-CTD (residues 132–218, CA-CTDΔCAH) (murine leukemia virus (MLV)); assay: crystal structure; X-ray, SAD with cobalt, 1.89 Å, space group P3(1)21; crystals grown at 20 °C, 37 mg/mL protein, 4% PEG 3350, 0.1 M Hepes pH 8.2, 5 mM each CoCl2, CdCl2, MgCl2, NiCl2
# [3] = target: the molecule itself; assay: cryo-EM structure; cryo-ET and subtomogram averaging of the CA lattice in purified, fixed mature MLV particles; 134 virions; hexamer 7.2 Å, pentamer 8.6 Å; repeated with a second preparation (8.1 Å); crystal structures fitted as rigid bodies
molecule,measurement,setting,value
MLV Gag polyprotein in immature virus particles (immature CA lattice) (natural protein),stoichiometry N,[1],6
"truncated MLV CA-CTD (residues 132–218, CA-CTDΔCAH) (domain or fragment)",stoichiometry N,[2],2
"MLV CA (capsid) protein in mature virus particles (mature CA lattice) (natural protein, CA (capsid) protein of murine leukemia virus, the product of cleavage of Gag by the viral protease; 263 residues (CA-CTD printed as residues 132-263); numbers count on: the CA protein; also called mature MLV CA; mature CA hexamer; source: HEK293T, transfected with the infectious clone pRR390; in purified mature virus particles, fixed with 1% paraformaldehyde) PLRAGGNGQLQYWPFSSSDLYNWKNNNPSFSEDPGKLTALIESVLITHQPTWDDCQQLLGTLLTGEEKQRVLLEARKAVRGDDGRPTQLPNEVDAAFPLERPDWDYTTQAGRNHLVHYRQLLLAGLQNAGRSPTNLAKVKGITQGPNESPSAFLERLKEAYRRYTPYDPEDPGQETNVSMSFIWQSAPDIGRKLERLEDLKNKTLGDLVREAEKIFNKRETPEEREERIRRETEEKEERRRTEDEQKEKERDRRRHREMSKLL",stoichiometry N,[3],6 and 5
